Reference: US7662583B2, “Bioreactor containing cells expressing glycosyltransferase nucleic acids isolatable from Arabidopsis” (The University of York, priority 2003, dated 2010)

B1: UGT84B1: Arabidopsis recombinant glycosyltransferase (protein, UniProt O22182 1-456, looked up)
UDP-glycosyltransferase 84B1: MGSSEGQETHVLMVTLPFQGHINPMLKLAKHLSLSSKNLHINLATIESARDLLSTVEKPRYPVDLVFFSDGLPKEDPKAPETLLKSLNKVGAMNLSKIIEEKRYSCIISSPFTPWVPAVAASHNISCAILWIQACGAYSVYYRYYMKTNSFPDLEDLNQTVELPALPLLEVRDLPSFMLPSGGAHFYNLMAEFADCLRYVKWVLVNSFYELESEIIESMADLKPVIPIGPLVSPFLLGDGEEETLDGKNLDFCKSDDCCMEWLDKQARSSVVYISFGSMLETLENQVETIAKALKNRGLPFLWVIRPKEKAQNVAVLQEMVKEGQGVVLEWSPQEKILSHEAISCFVTHCGWNSTMETVVAGVPVVAYPSWTDQPIDARLLVDVFGIGVRMRNDSVDGELKVEEVERCIEAVTEGPAAVDIRRRAAELKRVARLALAPGGSSTRNLDLFISDITIA
B2: UGT74F1: Arabidopsis recombinant glycosyltransferase (protein, UniProt O22820 1-449, looked up)
Flavonol …: MEKMRGHVLAVPFPSQGHITPIRQFCKRLHSKGFKTTHTLTTFIFNTIHLDPSSPISIATISDGYDQGGFSSAGSVPEYLQNFKTFGSKTVADIIRKHQSTDNPITCIVYDSFMPWALDLAMDFGLAAAPFFTQSCAVNYINYLSYINNGSLTLPIKDLPLLELQDLPTFVTPTGSHLAYFEMVLQQFTNFDKADFVLVNSFHDLDLHEEELLSKVCPVLTIGPTVPSMYLDQQIKSDNDYDLNLFDLKEAALCTDWLDKRPEGSVVYIAFGSMAKLSSEQMEEIASAISNFSYLWVVRASEESKLPPGFLETVDKDKSLVLKWSPQLQVLSNKAIGCFMTHCGWNSTMEGLSLGVPMVAMPQWTDQPMNAKYIQDVWKVGVRVKAEKESGICKREEIEFSIKEVMEGEKSKEMKENAGKWRDLAVKSLSEGGSTDININEFVSKIQIK
B3: UGT71B1: Arabidopsis recombinant glycosyltransferase (protein, UniProt Q9LSY9 1-473, looked up)
UDP-glycosyltransferase 71B1: MKVELVFIPSPGVGHIRATTALAKLLVASDNRLSVTLIVIPSRVSDDASSSVYTNSEDRLRYILLPARDQTTDLVSYIDSQKPQVRAVVSKVAGDVSTRSDSRLAGIVVDMFCTSMIDIADEFNLSAYIFYTSNASYLGLQFHVQSLYDEKELDVSEFKDTEMKFDVPTLTQPFPAKCLPSVMLNKKWFPYVLGRARSFRATKGILVNSVADMEPQALSFFSGGNGNTNIPPVYAVGPIMDLESSGDEEKRKEILHWLKEQPTKSVVFLCFGSMGGFSEEQAREIAVALERSGHRFLWSLRRASPVGNKSNPPPGEFTNLEEILPKGFLDRTVEIGKIISWAPQVDVLNSPAIGAFVTHCGWNSILESLWFGVPMAAWPIYAEQQFNAFHMVDELGLAAEVKKEYRRDFLVEEPEIVTADEIERGIKCAMEQDSKMRKRVMEMKDKLHVALVDGGSSNCALKKFVQDVVDNVP
B4: UGT71C1: Arabidopsis recombinant glycosyltransferase (protein, UniProt O82381 1-481, looked up)
Flavonol …: MGKQEDAELVIIPFPFSGHILATIELAKRLISQDNPRIHTITILYWGLPFIPQADTIAFLRSLVKNEPRIRLVTLPEVQDPPPMELFVEFAESYILEYVKKMVPIIREALSTLLSSRDESGSVRVAGLVLDFFCVPMIDVGNEFNLPSYIFLTCSAGFLGMMKYLPERHREIKSEFNRSFNEELNLIPGYVNSVPTKVLPSGLFMKETYEPWVELAERFPEAKGILVNSYTALEPNGFKYFDRCPDNYPTIYPIGPILCSNDRPNLDSSERDRIITWLDDQPESSVVFLCFGSLKNLSATQINEIAQALEIVDCKFIWSFRTNPKEYASPYEALPHGFMDRVMDQGIVCGWAPQVEILAHKAVGGFVSHCGWNSILESLGFGVPIATWPMYAEQQLNAFTMVKELGLALEMRLDYVSEDGDIVKADEIAGTVRSLMDGVDVPKSKVKEIAEAGKEAVDGGSSFLAVKRFIGDLIDGVSISK
B5: UGT71D1: Arabidopsis recombinant glycosyltransferase (protein, UniProt O82383 1-467, looked up)
UDP-glycosyltransferase 71D1: MRNVELIFIPTPTVGHLVPFLEFARRLIEQDDRIRITILLMKLQGQSHLDTYVKSIASSQPFVRFIDVPELEEKPTLGSTQSVEAYVYDVIERNIPLVRNIVMDILTSLALDGVKVKGLVVDFFCLPMIDVAKDISLPFYVFLTTNSGFLAMMQYLADRHSRDTSVFVRNSEEMLSIPGFVNPVPANVLPSALFVEDGYDAYVKLAILFTKANGILVNSSFDIEPYSVNHFLQEQNYPSVYAVGPIFDLKAQPHPEQDLTRRDELMKWLDDQPEASVVFLCFGSMARLRGSLVKEIAHGLELCQYRFLWSLRKEEVTKDDLPEGFLDRVDGRGMICGWSPQVEILAHKAVGGFVSHCGWNSIVESLWFGVPIVTWPMYAEQQLNAFLMVKELKLAVELKLDYRVHSDEIVNANEIETAIRYVMDTDNNVVRKRVMDISQMIQRATKNGGSSFAAIEKFIYDVIGIKP
B6: UGT76E12: Arabidopsis recombinant glycosyltransferase (protein, UniProt Q94AB5 1-458, looked up)
Flavonol …: MQVLGMEEKPARRSVVLVPFPAQGHISPMMQLAKTLHLKGFSITVVQTKFNYFSPSDDFTHDFQFVTIPESLPESDFKNLGPIQFLFKLNKECKVSFKDCLGQLVLQQSNEISCVIYDEFMYFAEAAAKECKLPNIIFSTTSATAFACRSVFDKLYANNVQAPLKETKGQQEELVPEFYPLRYKDFPVSRFASLESIMEVYRNTVDKRTASSVIINTASCLESSSLSFLQQQQLQIPVYPIGPLHMVASAPTSLLEENKSCIEWLNKQKVNSVIYISMGSIALMEINEIMEVASGLAASNQHFLWVIRPGSIPGSEWIESMPEEFSKMVLDRGYIVKWAPQKEVLSHPAVGGFWSHCGWNSTLESIGQGVPMICRPFSGDQKVNARYLECVWKIGIQVEGELDRGVVERAVKRLMVDEEGEEMRKRAFSLKEQLRASVKSGGSSHNSLEEFVHFIRTL

Experiments:
[1] = Whole-cell biocatalyst assay, E. coli expressing UGT in culture medium; type: cell-based
Method: FIG. 14 Whole-cell biocatalyst assay using UGT71C1. E. coli cells expressing recombinant were used in the biocatalyst assay. After incubation with 0.1 mM quercetin and 0.1 mM IPTG, cells were collected by centrifugation, extracted with 80% methanol and both the cell extracts (pellet) and culture medium (supernatant) were analysed using HPLC. (A) Changes in the combined amounts of aglycone/glucoside over a time-course of 0-48 h. (B) Changes in the level of different glucosides and aglycone in the culture medium over the same time-course.
Using the foundation established in the preceding example, we went on to investigate the potential of E. coli expressing plant UGTs as whole-cell biocatalysts to synthesise glucosides of quercetin. In the first instance, we used E. coli grown in 75 ml of standard culture medium. […] Table 2 describes results in which 7 different UGTs are expressed in E. coli and the identity and quantity of different glucosides recovered in the medium were analysed by HPLC. […] There was considerable variation in the level of different glucosides synthesised by the cells, although even under these non-optimised conditions, each of the four monoglucosides and two di-O-glucosides could be formed.

[2] = UGT enzyme reaction with quercetin (recombinant UGTs, HPLC); type: biochemical, Arabidopsis; settings: for Specific activity (nkat/mg protein) 3-O-glc: quercetin glucosylated at 3-OH; for Specific activity (nkat/mg protein) 3-O-glc / Specific activity (nkat/mg protein) 3′-O-glc / Specific activity (nkat/mg protein) 4′-O-glc / Specific activity (nkat/mg protein) 7-O-glc: 0.5 mM quercetin, 5 mM UDP-glucose, 30° C.; for Specific activity (nkat/mg protein) 3′-O-glc: quercetin glucosylated at 3′-OH; for Specific activity (nkat/mg protein) 4′-O-glc: quercetin glucosylated at 4′-OH; for Specific activity (nkat/mg protein) 7-O-glc: quercetin glucosylated at 7-OH; for di-O-glucoside formation from quercetin: low substrate concentration, time parameter varied
In short: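 Recombinant Arabidopsis UGTs (2 μg) incubated with 0.5 mM quercetin and 5 mM UDP-glucose in 100 mM Tris-HCl pH 7.0 at 30 °C for 1 h. Quercetin glucosides separated from aglycone by reverse-phase C18 HPLC (acetonitrile gradient, 0.1% TFA), detected at 370 nm.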

[3] = E. coli, 2x YT medium, 0.1 mM IPTG, 0.1 mM quercetin, 24 h

Molecule	Culture medium (μg/ml in supernatant) 7-O-glc [1, 3] [µg/mL]	Specific activity (nkat/mg protein) 3-O-glc [2]	Specific activity (nkat/mg protein) 3′-O-glc [2]	Specific activity (nkat/mg protein) 4′-O-glc [2]	Specific activity (nkat/mg protein) 7-O-glc [2]	Culture medium (μg/ml in supernatant) 4′-O-glc [1, 3] [µg/mL]	Culture medium (μg/ml in supernatant) 3′-O-glc [1, 3] [µg/mL]	Culture medium (μg/ml in supernatant) 7,3′-di-O-glc [1, 3] [µg/mL]	aglycone converted to glucosides ([1]; within 6 h, E. coli in 75 ml standard culture medium, no supplementary UDP-glucose) [%]	di-O-glucoside formation from quercetin [2]	Culture medium (μg/ml in supernatant) 3,7-di-O-glc [1, 3] [µg/mL]	Culture medium (μg/ml in supernatant) 3-O-glc ([1]; E. coli, 2x YT medium, 0.1 mM IPTG, 0.1 mM quercetin, 24 h, no added UDP-glucose) [µg/mL]
B1	4.83	— (Activity lower than 0.02 nkat/mg protein has been considered as trace activity and is not shown in the Table.)	— (Activity lower than 0.02 nkat/mg protein has been considered as trace activity and is not shown in the Table.)	— (Activity lower than 0.02 nkat/mg protein has been considered as trace activity and is not shown in the Table.)	0.14 nkat/mg protein							
B2	0.53					0.19						
B3		1.85 nkat/mg protein	— (Activity lower than 0.02 nkat/mg protein has been considered as trace activity and is not shown in the Table.)	— (Activity lower than 0.02 nkat/mg protein has been considered as trace activity and is not shown in the Table.)	— (Activity lower than 0.02 nkat/mg protein has been considered as trace activity and is not shown in the Table.)							
B4	2.12	— (Activity lower than 0.02 nkat/mg protein has been considered as trace activity and is not shown in the Table.)	1.19 nkat/mg protein	— (Activity lower than 0.02 nkat/mg protein has been considered as trace activity and is not shown in the Table.)	0.85 nkat/mg protein		8.00	10.90	~50	significant levels of di-O-glucosides		
B5		4.19 nkat/mg protein	— (Activity lower than 0.02 nkat/mg protein has been considered as trace activity and is not shown in the Table.)	— (Activity lower than 0.02 nkat/mg protein has been considered as trace activity and is not shown in the Table.)	— (Activity lower than 0.02 nkat/mg protein has been considered as trace activity and is not shown in the Table.)							
B6	4.74	1.16 nkat/mg protein	— (Activity lower than 0.02 nkat/mg protein has been considered as trace activity and is not shown in the Table.)	— (Activity lower than 0.02 nkat/mg protein has been considered as trace activity and is not shown in the Table.)	1.35 nkat/mg protein					significant levels of di-O-glucosides	0.71	1.41
